{
  "source": "patent US20130209481A1",
  "about": "(University of California, published 2013)",
  "key": {"[1]": {"molecular_target": "T1, yeast displayed CD44 link domain (CD44 ECD domain 1, aa 21-169) (Homo sapiens (Human), UniProt P16070 21-169)", "T1 construct": "also called Y-CD44 D1; Y-CD44 ECD D1", "T1 sequence (P16070 21-169 limits assumed)": "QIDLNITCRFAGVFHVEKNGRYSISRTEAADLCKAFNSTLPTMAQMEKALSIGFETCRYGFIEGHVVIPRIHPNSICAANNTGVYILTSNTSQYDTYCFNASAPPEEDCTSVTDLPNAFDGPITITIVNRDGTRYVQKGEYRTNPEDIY", "assay": "fd phage antibody selected on yeast displayed antigen; screened by flow cytometry as in Examples 4 and 5"}, "[2]": {"molecular_target": "T2, EphA2 on the surface of MDAMB231 cells (native EphA2) (human, UniProt P29317 24-976)", "T2 construct": "whole, on cells; from NP40 cell extracts in the immunoprecipitation; also called native antigen; receptor from cell extracts of MDAMB231 cells", "T2 sequence (P29317 24-976)": "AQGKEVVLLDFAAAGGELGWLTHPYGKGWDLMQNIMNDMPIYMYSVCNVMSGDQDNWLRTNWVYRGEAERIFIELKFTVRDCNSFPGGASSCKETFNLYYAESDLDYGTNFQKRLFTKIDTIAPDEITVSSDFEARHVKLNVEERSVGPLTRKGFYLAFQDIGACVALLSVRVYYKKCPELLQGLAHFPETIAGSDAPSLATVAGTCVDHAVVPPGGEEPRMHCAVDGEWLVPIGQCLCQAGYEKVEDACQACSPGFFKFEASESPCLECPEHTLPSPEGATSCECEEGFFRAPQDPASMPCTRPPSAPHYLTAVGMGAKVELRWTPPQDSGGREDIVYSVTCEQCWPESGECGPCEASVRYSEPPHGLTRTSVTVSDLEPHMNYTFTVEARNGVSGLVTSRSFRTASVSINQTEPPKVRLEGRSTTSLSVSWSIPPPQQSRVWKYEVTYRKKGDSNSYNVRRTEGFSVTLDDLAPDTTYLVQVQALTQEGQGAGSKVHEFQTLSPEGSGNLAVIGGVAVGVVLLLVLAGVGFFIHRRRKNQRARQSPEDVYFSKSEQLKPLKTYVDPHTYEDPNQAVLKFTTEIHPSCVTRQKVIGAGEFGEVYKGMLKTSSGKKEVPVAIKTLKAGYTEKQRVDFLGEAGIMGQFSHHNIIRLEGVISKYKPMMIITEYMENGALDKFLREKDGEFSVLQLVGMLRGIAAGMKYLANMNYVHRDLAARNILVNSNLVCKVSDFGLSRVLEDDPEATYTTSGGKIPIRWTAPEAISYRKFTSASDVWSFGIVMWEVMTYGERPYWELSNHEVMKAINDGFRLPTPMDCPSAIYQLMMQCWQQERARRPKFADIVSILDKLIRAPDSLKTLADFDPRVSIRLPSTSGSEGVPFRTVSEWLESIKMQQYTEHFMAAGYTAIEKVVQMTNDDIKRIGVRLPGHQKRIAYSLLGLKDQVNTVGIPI", "assay": "flow cytometry competition on MDAMB231 cells; competitors: phage antibodies D2-1A7 and D2-1A9"}, "[3]": {"molecular_target": "T2, EphA2 on the surface of MDAMB231 cells …", "assay": "flow cytometry of phage antibody on MDAMB231 cells"}, "[4]": {"molecular_target": "T3, yeast displayed EphA2 extracellular domain (EphA2 ECD, aa 25-534) (Homo sapiens (Human), UniProt P29317 25-534)", "T3 construct": "also called Y-EphA2; Y-EphA2 ECD", "T3 sequence (P29317 25-534 limits assumed)": "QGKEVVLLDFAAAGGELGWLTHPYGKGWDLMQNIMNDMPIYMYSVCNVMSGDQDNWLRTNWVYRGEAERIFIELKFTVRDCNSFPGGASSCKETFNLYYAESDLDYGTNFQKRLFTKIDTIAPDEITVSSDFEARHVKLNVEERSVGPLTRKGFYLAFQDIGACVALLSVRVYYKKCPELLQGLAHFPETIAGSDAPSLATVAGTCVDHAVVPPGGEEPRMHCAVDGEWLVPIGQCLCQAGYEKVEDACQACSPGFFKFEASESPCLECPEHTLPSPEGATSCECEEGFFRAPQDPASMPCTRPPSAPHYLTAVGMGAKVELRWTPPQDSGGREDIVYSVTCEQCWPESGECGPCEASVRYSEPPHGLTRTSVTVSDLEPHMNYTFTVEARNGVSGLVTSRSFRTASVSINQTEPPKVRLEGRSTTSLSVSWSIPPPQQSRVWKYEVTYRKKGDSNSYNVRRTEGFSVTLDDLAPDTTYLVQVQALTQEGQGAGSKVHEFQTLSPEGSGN", "assay": "flow cytometry of monoclonal phage antibody on yeast displayed EphA2 ECD"}, "[5]": {"molecular_target": "T1, yeast displayed CD44 link domain (CD44 …)", "assay": "flow cytometry of monoclonal phage antibody on yeast displayed CD44 domain 1"}, "[6]": {"molecular_target": "T3, yeast displayed EphA2 extracellular …", "assay": "phagemid antibody selected on yeast displayed antigen; screened by flow cytometry as in Examples 4 and 5"}, "[7]": {"molecular_target": "T3, yeast displayed EphA2 extracellular …", "assay": "yeast displayed antigen incubated with 10^9 phage, titer of bound phage"}, "[8]": {"molecular_target": "T3, yeast displayed EphA2 extracellular …", "assay": "phage recovery: 10^11 phage with 10^8 yeast cells, elution and titration"}, "[9]": {"molecular_target": "T1, yeast displayed CD44 link domain (CD44 …)", "assay": "yeast displayed antigen incubated with 10^9 phage, titer of bound phage (mismatched pair)"}, "[10]": {"molecular_target": "T3, yeast displayed EphA2 extracellular …", "assay": "fd phage antibody selected on yeast displayed antigen; screened by flow cytometry as in Examples 4 and 5"}},
  "data": [
    {"binder": "E8H7 (scFv, also called fd phage antibody E8H7) scFv: QVQLQESGGGLVQPGGSLRLSCSASGFTFSSYAMHWVRQAPGKGLEYVSAISSNGGSTYYADSVKGRFTISRDNSKNTLYLQMSSLRAEDTAVYYCVARLEWLPLAWDYWGQGTLVTVSSGGGGSGGGGSGGGGSSELTQDPAVSVALGQTVRITCQGDSLRSYYASWYQQKPGQAPVLVIYGKNNRPSGIPDRFSGSSSGNTASLTITGAQAEDEADYYCNSRDSSGNHKVFGGGTKLTVLG", "values": [
      {"measurement": "binding result", "setting": "[1]", "value": "binds"}
    ]},
    {"binder": "E8F11 (scFv, also called fd phage antibody E8F11) scFv: QVQLQQSGGGLVQPGGSLRLSCAASGFTFSSYAMSWVRQAPVKGLEWVSAISGSGGSTYYADSVKGRFTISRDNSKNTLYLQMNSLRIEDTAVYYCGRHLSSGSSVDYWGQGTLVTVSSGGGGSGGGGSGGGGSSELTQPPSASGSPGQSVTISCTGTSSDVGGYNYVSWYQQRPGYAPKLMIYDVSNRPSGVSNRFSGSKSGNSASLDISGLQSEDEADYYCAAWDDSLREFLFGTGTKVTVLG", "values": [
      {"measurement": "binding result", "setting": "[1]", "value": "binds"}
    ]},
    {"binder": "recombinant mouse Ephrin A1 with human Fc fusion protein (R&D Systems) (Fc fusion, UniProt P52793 19-182, looked up, Bought reagent; also called rEphrinA1-human Fc fusion protein; not shown: human Fc) DRHIVFWNSSNPKFREEDYTVHVQLNDYLDIICPHYEDDSVADAAMERYTLYMVEHQEYVACQPQSKDQVRWNCNRPSAKHGPEKLSEKFQRFTPFILGKEFKEGHSYYYISKPIYHQESQCLKLKVTVNGKITHNPQAHVNPQEKRLQADDPEVQVLHSIGYS", "values": [
      {"measurement": "fold difference between the IC50 of ephrin A1 against D2-1A7 and against D2-1A9", "setting": "[2]", "value": 9, "unit": "fold"}
    ]},
    {"binder": "anti-EphA2 human scFv D2-1A9 (scFv, V domains shown, also called anti-EphA2 phage D2-1A9) VH: QVQLVESGGGLIQPGGSLKLSCAASGFTVSNSYMSWVRQAPGKGLEWVAVIYSAGNTYYADSVKGRFTISRDTSNNTVHLQMNSLRPEDTAVYYCAREGSFGYDYRGQGTLVTVSS VL: DIVMTQSPGTLSLSPGERATLSCRASQSVSSSFLGWYQQKPGQAPRLLIYGASSRATGIPDRFSGSGSGTDFTLTISRLEPEDFAVYYCQQYGISPLTFGGGTKVEIKR", "values": [
      {"measurement": "binding result", "setting": "[3]", "value": "binds"},
      {"measurement": "binding result", "setting": "[4]", "value": "binds"}
    ]},
    {"binder": "anti-CD44 human scFv F2-1A6 (scFv, V domains shown, soluble scFv with C-terminal (His)6 tag in the immunoprecipitation; also called anti-CD44 phage F2-1A6) VH: QVQLVQSGAEVKKPGESLKISCKGSGYSFTSYWIGWVRQMPGKGLEWMGIIYPGDSDTRYSPSFQGQVTISADKSISTAYLQWSSLKASDTAMYYCARRLHGPFYFDYWGQGTLVTVSS VL: SELTQDPAVSVALGQTVRITCQGDSLRSYYASWYQQKPGQAPLLVIYGKNIRPSGIPDRFSGSSSGNTASLTITGAQAEDEADYYCNSRDSSGNHVVFGGGTKLTVLG", "values": [
      {"measurement": "binding result", "setting": "[5]", "value": "binds"}
    ]},
    {"binder": "1A12 (scFv, also called phagemid antibody 1A12) scFv: QVQLQESGGGLVQPGGFLRLSCAASGFTFSSYGMHWVRQTPGKGLEWVSYISSSSSYTNYADSVKGRFTISRDNSKNTLYLQMNSLRAEDTAVYYCARDNWYFDLWGRGTLVTVSSGGGGSGGGGSGGGGSDVVMTQSPSTLSASVGDRVSITCRASESISRWLAWYQQKPGKAPKALIYKASSLESGVPSRFSGSGSATEFTLTINSLQPDDFATYYCQQYSSYPLTFGQGTKVDIKR", "values": [
      {"measurement": "binding result", "setting": "[6]", "value": "binds"}
    ]},
    {"binder": "anti-EphA2 human scFv 2D6 (scFv, V domains shown, scFv; soluble scFv with C-terminal (His)6 tag (pUC119mycHis) in the immunoprecipitation; also called anti-EphA2 phage antibody 2D6; PhAb-EphA2) VH: QVQLQESGGGLVQPGGSLRLSCAASGFTFSSYAMSWVRQAPGKGLDWVSIIYNGDNTYYADSVKGRFTISRDNSKNSLYLQMNSLRAEDTAVYYCARWSGTSYDYWGQGTLVTVSS VL: SELTQDPAVSVALGQTVRITCQGDSLRSYYASWYQQKPGQAPLLVIYGENNRPSGIPDRFSGSSSGNTASLTITGAQAEDEADYYCHSRDSSGTHLRVFGGGTKVTVLG", "values": [
      {"measurement": "PhAb Output/Input", "setting": "[7]", "value": "0.06 ratio of output/input phage"},
      {"measurement": "fold recovery of phage against recovery from yeast displaying an irrelevant scFv (Y-CON)", "setting": "[8]", "value": "> 10000", "unit": "fold"},
      {"measurement": "PhAb Output/Input", "setting": "[9]", "value": "1e-06 ratio of output/input phage"}
    ]},
    {"binder": "anti-EphA2 human scFv D2-1B1 (scFv, V domains shown) VH: QVQLQESGGGVVQPGRSLRLSCAASGFTFSSYGMHWVRQAPGKGLEWVAVISYDGSNKYYADSVKGRFTISRDNSKNTLYLQMNSLRAEDTAVYYCAKVIAGGAYYGSADYWGQGTLVTVSS VL: SELTQDPAVSVALGQTVKITCQGDSLRTYYASWYQQKPGQAPVLVIYGENSRPSGIPDRFSGSSSGNTASLTITGAQAEDEADYYCHSRDSSGTHLRVFGGGTKLTVLG", "values": [
      {"measurement": "binding result", "setting": "[3]", "value": "binds"},
      {"measurement": "binding result", "setting": "[4]", "value": "binds"}
    ]},
    {"binder": "anti-EphA2 human scFv D2-1A7 (scFv, V domains shown, soluble scFv with C-terminal (His)6 tag in the immunoprecipitation; also called anti-EphA2 phage D2-1A7) VH: QVQLQQSGGGVVQPGRSLRLSCAASGFTFSSYAMHWVRQAPGKGLEWVAVISYDGSNKYYADSVKGRFTISRDNSKNTLYLQMNSLRAEDTAVYYCARASVGATGPFDIWGQGTMVTVSS VL: SELTQDPAVSVALGQTVSITCQGDSLRSYYASWYQQKPGQAPLLVIYGENNRPSGIPDRFSGSSSGNTASLTITGAQAEDEADYYCNSRDSSGTHLTVFGGGTKLTVLG", "values": [
      {"measurement": "binding result", "setting": "[3]", "value": "binds"},
      {"measurement": "binding result", "setting": "[4]", "value": "binds"}
    ]},
    {"binder": "A3H9 (scFv, also called fd phage antibody A3H9) scFv: QVLLVESGGGVVQAGASLRVSCAASGFSLTSYGMHWVRQAPGKGLEWVAFISSDGSDKYYVDSVKGRFTISRDTSKNMMYLQMNSLTTEDTAVYYCAKDWGSNWYLFDYWGQGTLVTVSSGGGGSGGGGSGGGGSQSVLTQPPSASETPGQRVTISCSGSSSNIGANTVHWYQQFPGTAPKLLIYSYSQRPSGVPDRFSDSKSGTSASLAISGLQSEDEADYYCAAWDDILNGWVFGGGTKVTVLG", "values": [
      {"measurement": "binding result", "setting": "[10]", "value": "binds"}
    ]}
  ]
}
